In paper PMC5760735, “Isolation and Characterization of Key Genes that Promote Flavonoid Accumulation in Purple-leaf Tea (Camellia sinensis L.)” (Scientific Reports, 2018):

How the values were obtained:
Conditions in all cases: 5 mM UDP-glucose, phosphate buffer pH 7.5, 30 °C, 10 min
purified protein = substrate: O=c1c(O)c(-c2cc(O)c(O)c(O)c2)oc2cc(O)cc(O)c12; test: purified protein
[1] = substrate: O=c1c(O)c(-c2ccc(O)cc2)oc2cc(O)cc(O)c12; test: glucosyltransferase assay of recombinant enzyme, HPLC; format: biochemical, Camellia sinensis
[2] = substrate: O=c1c(O)c(-c2ccc(O)c(O)c2)oc2cc(O)cc(O)c12; test: as above; format: biochemical, Camellia sinensis

B1: CsUGT72AM1 (Camellia sinensis) (protein)
chain: MDSSNSKPHVALLSSPGIGHLIPVLELRKRLVANHGFHVTVFSVTTTTAPPPKPKTATTTTTLDLVDIFELHVDISGLVNPNAPFVERVGVTMRESLPILRQAISGMDPRPTTLVVDIFGTDAMKIADEFDMSKYVFITTSAWVFAFCVFVPTLDEEVEGEYVDLQEPVKIPGCNPVRVEDLVDPMLDRRSQQYFEFLRTCKGYLSFDGVLVNTWEDLERPTLKAFRENGLLKQVLKAPIYPIGPLVKRVGSSGSRSELLEWLDLQPCQSVLYVSFGSAGTVSAKQITELAWGLELSQQRFIWVLRPPMEKGGPHDLNDCDDVANYLPDGFLSRTHKLGLVVPTWAPQEEILGHRSVGGFLSHGGWNSSLESILSGVPMIMWPLYAEQKMNAAMVVEELEVGVRVVQLSEVVEREEIAKFVRMVIEGREGKAMRTRVKELQCSGERALIENGSSYESMCELARDFEMKLKY
notes: cDNA in pMAL-c2X (MBP fusion), expressed in E. coli Novablue (DE3), purified
With B1 the Km (purified protein) was 113.15 µM, the Km [1] was 71.81 µM and the Km [2] was 94.99 µM.
